Experimental data: IntAct's records for PubMed 23374343

B1: Sialic acid-binding Ig-like lectin 10 (Mus musculus), Q80ZE3 (parent)
chain: MSLLLFLLSFLLDGPQGQMESYFLQVQRIVKAQEGLCIFVPCSFSSPEGKWLNRSPLYGYWFKGIRKPSLSFPVATNNKDKVLEWEARGRFQLLGDISKKNCSLLIKDVQWGDSTNYFFRMERGFERFSFKEEFRLQVEALTQKPDIFIPEVLEPGEPVTVVCLFSWTFNQCPAPSFSWMGDAVSFQESRPHTSNYSVLSFIPGLQHHDTELTCQLDFSRMSTQRTVRLRVAYAPRSLAISIFHDNVSVPDLHENPSHLEVQQGQSLRLLCTADSQPPATLSWVLEDQVLSWSSPVGSRTLALELPWVKAGDSGHYTCQAENRLGSQQHTLDLSVLYPPQDLRVTVSQANRTVLEILRNAISLPVLEGQSLCLVCVTYSNPPANVSWAWVTQTLIPIQSSEPGVLELPLVQREHEGEFTCAAQNPLGAQRISLSLSVHYPPQMSSPSCSWEAKGLHCNCSSRAWPAPSLRWRLGEGLLEGNSSNASFTVTFSSLGPWVNSSLSLLQELGPSLWLSCESWNTHGAQTTSVLLLPDKDSATAFSKGAVLGFGITALLALCLIVVIVKTLQKKGTQEEPSRPKLSRGSTILDYINVVPKTRSLARNWKAEPDAPSRSSPLDTHFPKPKKKQKDPHFTYPGCPDPTSSSQVPVSENNPEELHYAALNFSRLRLQETQDPQDTYSDYTEVRVH
partner: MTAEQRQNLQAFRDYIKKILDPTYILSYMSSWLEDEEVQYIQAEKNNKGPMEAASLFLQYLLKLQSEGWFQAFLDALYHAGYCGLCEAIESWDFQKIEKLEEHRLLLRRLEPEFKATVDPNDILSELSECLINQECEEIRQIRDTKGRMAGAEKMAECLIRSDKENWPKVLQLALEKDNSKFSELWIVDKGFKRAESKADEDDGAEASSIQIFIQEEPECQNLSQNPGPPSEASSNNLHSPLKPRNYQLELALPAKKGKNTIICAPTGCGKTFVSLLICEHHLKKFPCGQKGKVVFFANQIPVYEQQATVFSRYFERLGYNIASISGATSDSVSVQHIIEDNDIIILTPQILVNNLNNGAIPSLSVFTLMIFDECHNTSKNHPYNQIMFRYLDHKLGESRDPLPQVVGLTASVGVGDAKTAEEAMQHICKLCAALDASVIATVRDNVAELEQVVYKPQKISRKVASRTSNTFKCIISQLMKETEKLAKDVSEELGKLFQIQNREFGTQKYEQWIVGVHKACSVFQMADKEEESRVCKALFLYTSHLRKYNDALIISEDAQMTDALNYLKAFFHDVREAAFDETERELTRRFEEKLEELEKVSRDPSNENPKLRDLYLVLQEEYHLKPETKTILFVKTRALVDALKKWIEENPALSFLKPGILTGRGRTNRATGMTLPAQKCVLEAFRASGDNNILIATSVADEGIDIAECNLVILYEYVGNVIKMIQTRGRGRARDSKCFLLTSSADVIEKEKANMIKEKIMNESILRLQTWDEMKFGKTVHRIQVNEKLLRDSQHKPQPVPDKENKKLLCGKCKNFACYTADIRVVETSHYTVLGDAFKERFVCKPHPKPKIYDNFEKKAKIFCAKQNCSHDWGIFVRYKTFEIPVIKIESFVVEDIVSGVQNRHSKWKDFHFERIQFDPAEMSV

Variants of: B1
Conditions: with rigi_mouse Rigi

Question: How did the “effect of a mutation on the interaction” value turn out when Y590F;Y635F;Y659F;Y679F was run?
Answer: The value was “decreasing interaction strength”.
